Laboratory results taken from the nanobody polyreactivity screen of Harvey et al. (2022).

Assay: yeast display, Sf9 membrane polyspecificity reagent, FACS + sequencing; frameworks hold sequencing errors
How it was run: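 In a synthetic yeast display library (Saccharomyces cerevisiae BJ5465), nanobody expression was induced with galactose for 36–48 hours. FACS gates were set low and high (top ~1%) using anti-HA fluorescence for expression and streptavidin fluorescence for binding of the Sf9 membrane reagent. Each polyreactivity label is drawn from the gate of origin.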

Sequence	polyreactivity (PSR sort gate)
QVQLVESGGGLVQAGGSLRISCAASGGTFQPYAMGWYRQAPGKERELVAAITSSDGSTYYADSVKWRFTISRDNAKNTVYLQMNSLKPEDTAVYYCNATIASGYGDRYVDTSHDYWGQGTQVTVSS	low polyreactivity
QVQLVESGGGLVQAVGSLRLSCAASGLTFYSNAMGWYRQAPGTERELVATISQDGGRTYADSVKGLFTISRDNAKNTVYFQMNSLKPEDTAVYYCAADYSGNYDFGYWGQGNQVTVSS	low polyreactivity
QVQLVESGGGLVQAGGSLRFSCAASGYIFYKYAMGWYRHAPGKERELVAAIRRSGGSTYYADSVKGRFTISRDNAKNTVYLQMNSLKPEDTAVYYCAARYFRGSYPMGYWGQGTQVTVSS	high polyreactivity
QVQLVESGGGLVQAGGSLRLSCAASGLTFPGYAMGWYRQAPGKERELVAGISKRGGSTYYADSVKGRFTISRDNAKNTVYLQMNSLKPEDTAVYYCAAVYRSQSQPYDYWGQGTQVTVSS	high polyreactivity
QVQLVESGGGLVQAGGSLRLSCAASGSTFWFYAMGWYRQAPGKERELVAVISNYGSTYYADSVKGRFTISRDNAKNTVYLQMNSLITEDTAVYSCNKDGGGDSYWYDYWGQGTQVTVSS	low polyreactivity
QVQLVESGGGLVQAGGSLRLSCAASGRTFYWNTMGWYRQAPGKERELVAAINYSGGSTYYADSVKGRFTISRDNAKNTVYLQMNSLKPEDTAVYYCAAYFHGYKSLHRARSEYNYWGQGTQVNVSS	high polyreactivity
QVQLVESGGGLVQAGGSLRLSCAASGSIFGTYAMGWYRQAPGKERELVAAISWSDGSTYYADSVKGRFTISRDNAKNTVYLQMNSLKPEDTAVYYCAKVYRSIGPNVSRYGLSYYYWGQGTQVTVSS	low polyreactivity
QVQLVESGGGLVQEGGSLRLSCAASGSTFAANTMGWYRQAPGKERELVAAITVRGGSTYYADSVKGRFSMSRDNAKNTVYLQTNSLKPEDTAVYDCAAERPPYGYLVVGYVSTQYYYWGQGTQVTVSS	low polyreactivity
QLQLVESGGGLVQAGGSLRLSCAASGSTFHLYAMGCYREAPWNEREFVAAIRGRGGNTYADSVKGRFTISRDNAKNTVYLPMNSLKPEDTAVYYCAAAFYYYGDSDNWGQGTQVTVSS	low polyreactivity
QVQLVESGGGLVQAGGSLRLSCAASGFISKYYAMGRYRQAPGKERELVASISRDGSTSYADSVKGRFTISRDNAKNTVYLQMNSLKPEDTAVYYCAAPSYRTRYYYWGQGTQVTVSS	high polyreactivity
QVQLVESGGGLVQAGGSLRLSCAASGSIISNYVMGWYRPAPGKERELVAAITRRGGRTYYADSVKGRFTISRDNAKNTVYLQMNSLKPEDTAVYYCAAERYPEAGSPYGTAEMDYWGQGTLVTVSS	high polyreactivity
QVQLVESGGGLVQAGGSLRLSCAASGIISAHYAMGWYRQAPGKERELVAAISSSGGSTYYADSVKGRFTISRDNAKNTVYLQMNSLKPEDTAVYYCNAEFYWGYDYWGQGTQVTVSS	low polyreactivity
QVQLVESGGGLVQAGGSLRLSCAASGSTFYSYAMGWYRQAPGKERELVAAISSSSGSTYYADSVKGRFTISRDNAKNTVYLQMNSLKPEDTAVYYCNRGRRYSHKYDYWGQGTQVTVSS	high polyreactivity
QVQVVESGGGLVQAGGSLRLSCAASGFTYGNNGMGWYRQAPGKERELVATISWSGGSTYADSVKGRFTISRDNAKNTVYLQMNSLKPEDTAVYYCAARYFVYYQEVDYWGQGTQVTVSS	low polyreactivity
QVQLVESGGGLVQAGGSLRLSCAASGSTFTANAMGWYRQAPGKERELVAAISDTTGNTYYADSVKGRFTISRDNAKNTVYLQMNSLKPEDTAVYYCAARQFKSDIVVSLVDSWGQGTHVTVSS	low polyreactivity
QVQLVESGGGLVQAGGSLRLSCAASGRTFLRYAMGWYRQAPGKERELVAAISSRGGSTYYADSVKGRFTISRDNAKNTVYLQMNSLKPEDTAVYYCAADTYYTRYYYWGQGTQVTVSS	high polyreactivity
QGQLEESCGGLVQAGARLRISCEASGRTFRFYTMGGYRPAPGKEMELVAAISSNTGTTYADSVKGRFTISRDNAKNTVYLQMNSLKQEDTAVFFCAARVRRQYYNRPYYYWGQGTQVTVSS	high polyreactivity
QDQHVESGGGLVQAGGSLRLICAASGFTFSHYPMGSYRQAPGKERELVAAINWSGGSTDYADSVKGRFTLSRDNAMNTVYLQMNSLKPVDTAVYYCNTVSYAYWGYYYWGQGTQVTLSS	high polyreactivity
QVQLVESGGGLVQAGGSLRLSCAASGNTFYGYAMGWYRQAPGKERELVASITLSGDSTYYADSVKGRFTISRDNAKNTVYLQMNSLKPADTAVYYCAGVYTYPLGYYHYTYDYWGQGTQVTVSS	low polyreactivity
QVQLVESGGGLGQAGGSLRLSCAPSGFIFTLYAMGWYRQAPGKERELVAAIDTSVASTYYADSVKGRFTLSRENAKYTVYLQMNSLKPEDTAVYYCNADGASYLILSYYQPYDYWGQGTQVTVSS	low polyreactivity
QVQLVESGGGLVQAGGSLRLSCAASGSIFSIYAMGWYRQAPRKERELVAAISSSGRTYYADSVKGRFTISRDNAKNTVYLQMNSQKPVDTAVYYCNRVREGKHYYYWGQGTQVTVSS	high polyreactivity
QVHLVESGGGLVQAGGSLRLSCAASGIIFGRFTMGWYRQAPGKERELVAAITSSGITYYADSLKGRFTISRDNAKNTVYLQMNSLKPEDTAVSYCNADYSIPGYYWPFDYWGQGTQVTVSS	low polyreactivity

Sequence	polyreactivity (PSR sort gate)
QVQLEESGGGLVQAGGSLRLSCAASGSILFFNAKGWYRQAPGKERELVADISTGGSTYYADSVKGRFTISRDNAKNTVYLQMNSLKPEDTAVYYCNADYYYFFYTLDYWGQGTQVTVSS	high polyreactivity
QVQRVESGGGLVQAGRSLRLSCAASGTTFGRNAMGWYRQAPGIERELVAAINSGGGTYYADSVKGRFTISRDNAKNTVYLQMNSLKPEDTSVFYCAAARRYGNYDYWGQGTQLTVSS	low polyreactivity
QVQLVESGGGLVQAGGSLRLSCAASGRIFPSYTMGWYRQAPGKERELVAGITKSGSSTYYADSVKGRFTISRDNAKNTVYLQMNSLKPEDTAVYYCAAVYGNPSYRYGYWGQGTQVTVSS	high polyreactivity
QVQLVESGGGLVQAGGSLRLSCAASGSIFIRNAMGWYRQAPGKERELVAAITSGGNTYYADSVKGRFTISRDNAKNTVYLQMNSLKPEDTAVYYCNAGRYYRHDYWGQGTQVTVSS	low polyreactivity
QVQLVESGGGLVQAGGSLRLSCAASGSTFYFYAMGWYRQAPGKERELVAVISSGGRTYYADSVKGRFTISRDNAKNTVYLQMNSLKPEDTAVYYCAASWPSSLTYYYWGQGTQVTVSS	low polyreactivity
QVQLVESRRGLVQARGSLRLSCAASGITFRWYAMGWYRQAPGKERELVAAITTGGSTKYADSVKGRFTISRDNAKNTVYLQMNSLKPEDTAVYYCAARGRYAGGYWGQGTQVTVSS	high polyreactivity
QVQLVESGAGLVQAGGSLRISCAASGIIFTYYPMGWYRQAPGKERELVASISSSGTSTYYADSVKGRFTISRDNAKNTVYLQLNSLKPEDTAVYYCAKSYWGDNSGFPGTPYDYWGQGTQVTVSS	low polyreactivity
QVQLVESGGGLVQAGGSLRLSCAASGRTFANYVMGWYRQAPGKERELVAGMTGSGGSTYYADSVKGRFTISRDNAKNTVYLQMNSLKPEDTAVYYCAKRYVYVASMGYWGQGTQVTVSS	high polyreactivity
QVQLVESGGGLVQAGGSLRLSCAASGSIFEPYVMGWYRQAPGKERELVAAIRQTGGSTYYADSVKGRFTISRDNAKNTVYLQMNSLKPEDTAVYYCNAEQNPSGLYDYRGVEGEMGYWGQGTQVTVSS	low polyreactivity
QVQLVESGGGLVQAGGSLRLSCAASGRIFWGYAMGWYRQAPGKERELVAGITSGGITNYADSVKGRFTISRDNAKNTVYLQMNSLKPEDTAVYYCNKDFWGYPRVRYYYWGQGTQVNVSS	high polyreactivity
QVQLVESGGGLVQAGGSLRLSCAASGSTFWYYTMGWSRQAPGKERELVAGITSGGSTYYADSVKGRFTISRDNAKNTVYLQMNSLKPEDTAVYYCAKRYYGRGYYYWGQGTQVTVSS	high polyreactivity
QVQRVESAGGLVQAGGSLRLSCAASGSTFLYNAMGWYRQAPGKERELVAAISWSGGSTYYADSVKGRFTISRDNAKNTVYLQMNSLKPEDTAVYYCAKPRSWGYNWGQGTQVTVSS	high polyreactivity
QVQLVESGGGLVQAGGSLRLSCAASGITFSRYAMGWYRQAPGTERELVAAITSSGGSTYYADSVKGRFTISRDNAKNTVYLQMNSLKPEDTAVYYCAATSYYTREQYYYWGQGTQVTVSS	high polyreactivity
QVQLVESGGGLVEAGGSLRLSCAASGRTFQYYPMGWYRQAPGKERDFVAAITRTGARTYYADSVKGRFTISRDNAKNTVYLQMYSLKPEDTAVYYCAISLTFYSWRDYGYWGQGSQVTVSS	high polyreactivity
QVQLVESGGGLVQAGGSLRLSCAASGFTFSFYSMGWYRQAPGKERELVASISDSDGITFYADSVKGSFTISRDNAKNTVYLQMNSLKPEDTAVYYCAADVAIAIPFSYDYWGQGTQVTVSS	low polyreactivity
QVQLVESGGGLVQAGGSLRLSCAASGFTFGWYAMGWYRPAPGKERELVAAISRSGGSTYYADSVKGRFTISRDTAKNTVYLQMNSLKPEDTAVYYCAATYPQGKYTYGRSYDYWGQGTQVTVSS	high polyreactivity
QVQLVESGGGLVQAGGSLSLSCAASGGTFSPYAMGWYRQAPGKERELVAITSSDSTNYADSVKGRFTISRDNAKNTVYLQMNSLKPEDTAVYYCNAGYPIPEDYLAYGNFDYWGQGTQVTVSS	low polyreactivity
QVQLVESGGGLVQAGGSLRLSCAASGFTFSFYAMGWYRQAPGKERELVAPISYSGGITYYADSVKGRFTISRENWKNTVYLQMNSLKPEDTAVYYCAAVPYYSKGSSHYNSGNNYCGQGTQVTVSS	low polyreactivity
QVQLVESGGGLVQAGGSLRLSCSASGITYGGNEMGWYRQAPGTESELVAGIDDGGSTNYADSVKGRFTISRDNAKNTVYLQMNSLKPEDTAVYYCAVQGHPPLGILPGFLFDYWGQGTQVTVSS	low polyreactivity
QVQIVESGGGLVQAGASLRLSCAASGSISKSYAMGWYRQAPGKERELVAAISWRGGSTYADSVKGRFTISRDNAENTVYSLMNSLKPEDTAVYYCAATNYGSFWGGQSERYDYWGQGTQVTVSS	low polyreactivity
QVQLVESRGGLVQAGGSLRLSCAASGLNFSYYAMGWYRQAPGKERELVAAIDWNSGSTYYADSVKGRFTISRDNAKNTVYLQMNSLKPEDTAVYYCAAYGSFWYARFGYWGQGTQVTVSS	low polyreactivity
